Molecular target: T1, glutathione S-transferase (GST)-L5 (S. cerevisiae, UniProt P26321 1-297)
T1 sequence (looked up): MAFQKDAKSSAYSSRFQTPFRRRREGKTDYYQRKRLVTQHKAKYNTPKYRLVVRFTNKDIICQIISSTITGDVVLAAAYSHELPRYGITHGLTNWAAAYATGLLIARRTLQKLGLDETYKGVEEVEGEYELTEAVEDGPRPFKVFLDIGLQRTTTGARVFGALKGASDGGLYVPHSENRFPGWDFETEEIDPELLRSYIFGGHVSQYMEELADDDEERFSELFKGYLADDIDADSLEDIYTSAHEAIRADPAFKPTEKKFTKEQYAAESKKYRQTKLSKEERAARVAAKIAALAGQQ
Assay: pull-down

B1: maltose-binding protein (MBP)-Rrs1p (natural protein, S. cerevisiae, UniProt Q08746 1-203, looked up)
chain: MSAEDYKNLPVTVEKPIPVVYDLGNLAAFDSNVLDKNDLDSSNARREEKIKSLTRDNVQLLINQLLSLPMKTTTESVGGTGGQSSVMTLLQLPDPTTDLPREKPLPKAKAMTKWEKFAAKKGIKPKERAGKMIYDEASGEWVPKWGYKGANKKLDDQWLVEVDDKVKGTDNELIDPRTLNRAERKRLVKKNEKQQRRNMKNAL
B1: binds.
